Assay results as given in patent US7897573B2, “Selective VPAC2 receptor peptide agonists” (priority 2005, dated 2011).

Columns and labels:
[1] = target: T1, Rat VPAC2 Receptor (Rattus norvegicus, UniProt P35000); test: DiscoveRx cAMP potency, CHO-PO cells transiently transfected with rat VPAC2 receptor; type: cell-based; details: cAMP generation
T1 construct: expressed in transfected cells; host or cells: CHO-PO (transient, Lipofectamine)
T1 sequence (P35000 23-437): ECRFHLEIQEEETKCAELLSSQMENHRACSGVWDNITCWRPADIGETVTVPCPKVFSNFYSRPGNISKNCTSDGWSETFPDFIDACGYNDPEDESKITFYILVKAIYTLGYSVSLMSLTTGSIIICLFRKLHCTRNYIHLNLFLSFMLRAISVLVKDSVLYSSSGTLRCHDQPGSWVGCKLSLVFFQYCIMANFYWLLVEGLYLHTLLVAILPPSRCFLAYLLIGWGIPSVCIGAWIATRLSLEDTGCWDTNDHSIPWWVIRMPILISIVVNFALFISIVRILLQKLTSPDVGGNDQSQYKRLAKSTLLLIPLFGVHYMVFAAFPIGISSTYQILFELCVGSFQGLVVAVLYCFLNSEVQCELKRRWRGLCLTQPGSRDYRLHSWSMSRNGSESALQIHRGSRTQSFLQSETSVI
Method: (§1) DiscoveRx: CHO-PO cells are transiently transfected with rat VPAC1 or VPAC2 receptor DNA using commercially available transfection reagents (Lipofectamine from Invitrogen). The cells are seeded at a density of 10,000/well in a 96-well plate and are allowed to grow for 3 days in […] culture medium At day 3, the assay is performed.
(§2) On the day of the experiment, the medium is removed. Also, the cells are washed twice. The cells are incubated in assay buffer plus IBMX for 15 minutes at room temperature. Afterwards, the stimuli are added and are dissolved in assay buffer. The stimuli are present for 30 minutes. Then, the assay buffer is gently removed. The cell lysis reagent of the DiscoveRx cAMP kit is added. Thereafter, the standard protocol for developing the cAMP signal as described by the manufacturer is used (DiscoveRx Inc., USA). EC50 values for cAMP generation are calculated from the raw signal or are based on absolute cAMP levels as determined by a standard curve performed on each plate.
(§3) Results for each agonist are the mean of two independent runs. Rat VPAC1 and VPAC2 results are only generated using the DiscoveRx assay.

[2] = target: T2, Human VPAC2 Receptor (Homo sapiens, UniProt P41587); test: Alpha screen cAMP potency at human VPAC2 receptor; type: cell-based; details: cAMP generation; read-out: Human VPAC2 Receptor: Alphascreen (EC50; nM)
T2 sequence (P41587 24-438): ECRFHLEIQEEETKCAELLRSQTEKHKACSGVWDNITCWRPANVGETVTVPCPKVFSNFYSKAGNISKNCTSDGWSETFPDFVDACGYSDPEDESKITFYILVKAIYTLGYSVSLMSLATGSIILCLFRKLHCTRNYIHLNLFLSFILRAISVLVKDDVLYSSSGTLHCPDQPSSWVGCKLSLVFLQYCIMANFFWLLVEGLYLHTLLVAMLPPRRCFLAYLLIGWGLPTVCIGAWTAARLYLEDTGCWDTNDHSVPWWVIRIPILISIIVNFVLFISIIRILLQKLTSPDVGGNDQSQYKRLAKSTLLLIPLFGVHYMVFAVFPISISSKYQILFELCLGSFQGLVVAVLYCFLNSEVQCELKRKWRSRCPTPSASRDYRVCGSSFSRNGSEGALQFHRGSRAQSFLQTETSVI
Method: Alpha screen: Cells are washed in the culture flask once with PBS. Then, the cells are rinsed with enzyme free dissociation buffer. The dissociated cells are removed. The cells are then spun down and washed in stimulation buffer. For each data point, 50,000 cells suspended in stimulation buffer are used. To this buffer, Alpha screen acceptor beads are added along with the stimuli. This mixture is incubated for 60 minutes. Lysis buffer and Alpha screen donor beads are added and are incubated for 60 to 120 minutes. The Alpha screen signal (indicative of intracellular cAMP levels) is read in a suitable instrument (e.g. AlphaQuest from Perkin-Elmer). Steps including Alpha screen donor and acceptor beads are performed in reduced light. The EC50 for cAMP generation is calculated from the raw signal or is based on absolute cAMP levels as determined by a standard curve performed on each plate.
The tested peptide concentrations are: 10000, 1000, 100, 10, 3, 1, 0.1, 0.01, 0.003, 0.001, 0.0001 and 0.00001 nM.

[3] = target: T3, Rat VPAC1 Receptor (Rattus norvegicus, UniProt P30083); test: DiscoveRx cAMP potency, CHO-PO cells transiently transfected with rat VPAC1 receptor; type: cell-based; details: cAMP generation
T3 construct: expressed in transfected cells; host or cells: CHO-PO (transient, Lipofectamine)
T3 sequence (P30083 31-459): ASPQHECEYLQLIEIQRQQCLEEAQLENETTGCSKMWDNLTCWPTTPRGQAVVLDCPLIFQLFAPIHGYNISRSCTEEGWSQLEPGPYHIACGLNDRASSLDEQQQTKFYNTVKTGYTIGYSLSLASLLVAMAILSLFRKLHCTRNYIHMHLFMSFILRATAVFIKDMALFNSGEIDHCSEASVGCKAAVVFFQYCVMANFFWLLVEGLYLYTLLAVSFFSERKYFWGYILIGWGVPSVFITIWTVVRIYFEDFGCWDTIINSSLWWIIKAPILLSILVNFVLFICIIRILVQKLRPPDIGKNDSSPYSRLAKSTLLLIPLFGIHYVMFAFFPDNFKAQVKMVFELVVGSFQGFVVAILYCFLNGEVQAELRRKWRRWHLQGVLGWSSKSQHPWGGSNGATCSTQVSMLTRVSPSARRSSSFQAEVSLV
Method: as §1, §2, §3

[4] = target: T2, Human VPAC2 Receptor; test: Filter binding assay, 125I-labeled VIP, membranes of stable VPAC2 cell line; details: 125I-labeled VIP tracer
Method: For this assay, the solutions and equipment include:
Presoak solution: 0.5% Polyethyleneamine in Aqua dest
Buffer for flushing filter plates: 25 mM HEPES pH 7.4
Blocking buffer: 25 mM HEPES pH 7.4; 0.2% protease free BSA
Assay buffer: 25 mM HEPES pH 7.4; 0.5% protease free BSA
Dilution and assay plate: PS-Microplate, U form
Filtration Plate Multiscreen FB Opaque Plate; […] Type B Glasfiber filter
In order to prepare the filter plates, the presoak solution is aspirated by vacuum filtration. The plates are flushed twice with 200 μL flush buffer. 200 μL blocking buffer is added to the filter plate. The filter plate is then incubated with 200 μL presoak solution for 1 hour at room temperature.
The assay plate is filled with 25 μL assay buffer, 25 μL membranes (2.5 μg) suspended in assay buffer, 25 μL agonist in assay buffer, and 25 μL tracer (about 40000 cpm) in assay buffer. The filled plate is incubated for 1 hour with shaking.
The transfer from assay plate to filter plate is conducted. The blocking buffer is aspirated by vacuum filtration and washed two times with flush buffer. 90 μL is transferred from the assay plate to the filter plate. The 90 μL transferred from assay plate is aspirated and washed three times with 200 μL flush buffer. The plastic support is removed. It is dried for 1 hour at 60° C. 30 μL Microscint is added. The count is performed.

Row | Substance | EC50 [1] | EC50 [2] | EC50 [3] | IC50 [4]
1 | C6-HSDAVFTEQY(OMe)TOrnLRAibQC(PEG40K)AAbuAibOrnY(OMe)LQSIOrnOrnGGPSSGAPPPS-NH2 (HSDAVFTEQYTXLRXQCAXXXYLQSIXXGGPSSGAPPPS; C6 acyl, non-natural residues, PEG40K, C-terminal amide; Synthetic sequence PEGylated VPAC2 receptor agonist) [Agonist P586] | 187 nM | 122 nM | 502 nM | –
2 | C6-HSDAVFTEQY(OMe)TOrnLRAibQK(WPEG40K)AAAibOrnYLQSIOrnOrnGGPSSGAPPPS-NH2 (HSDAVFTEQYTXLRXQXAAXXYLQSIXXGGPSSGAPPPS; C6 acyl, PEG40K on Lys, C-terminal amide; Synthetic sequence PEGylated VPAC2 receptor agonist) [Agonist P533] | – | – | – | 959 nM
3 | C6-HSDAVFTEK(CO(CH2)2SPEG40K)Y(OMe)TOrnLRAibQVAAAibOrnYLQSIOrnOrnGGPSSGAPPPS-NH2 (HSDAVFTEXYTXLRXQVAAXXYLQSIXXGGPSSGAPPPS; C6 acyl; PEG40K; non-natural residues; amide; Synthetic sequence PEGylated VPAC2 receptor peptide agonist) [Agonist P451] | – | 68.6 nM | – | 596 nM
4 | C6-HSDAVFTEQY(OMe)TOrnLRAibQC(PEG20K)AAAibOrnYLQSIOrnOrnGGPSSGAPPPC(PEG20K)-NH2 (HSDAVFTEQYTXLRXQCAAXXYLQSIXXGGPSSGAPPPC; C6 acyl, two PEG20K, C-terminal amide; Synthetic sequence PEGylated VPAC2 receptor agonist) [Agonist P568] | 250 nM | 129 nM | > 1000 nM | –
5 | C6-HSDAVFTEQY(OMe)TOrnLRAibQLAAbUAibOrnY(OMe)LQAibIOrnC(PEG40K)OrnGGPSSGAPPPS-NH2 (HSDAVFTEQYTXLRXQLAXXXYLQXIXCXGGPSSGAPPPS; C6 acyl, non-natural residues, PEG40K, C-terminal amide; Synthetic sequence PEGylated VPAC2 receptor agonist) [Agonist P576] | 67.4 nM | 55 nM | 461 nM | –
6 | C6-HSDAVFTEQY(OMe)TOrnLRAibQVAAAibOrnYAibQSIOrnOrnGGPSSGAPPPC(PEG40K)-NH2 (HSDAVFTEQYTXLRXQVAAXXYXQSIXXGGPSSGAPPPC; C6 acyl, PEG40K on Cys, C-terminal amide; Synthetic sequence PEGylated VPAC2 receptor agonist) [Agonist P507] | 94.9 nM | 27.1 nM | > 1000 nM | –
7 | C6-HSDAVFTEQY(OMe)TOrnLRAibQLAAbuAibOrnY(OMe)LQSIOrnC(PEG20K)OrnGGPSSGAPPPC(PEG20K)-NH2 (HSDAVFTEQYTXLRXQLAXXXYLQSIXCXGGPSSGAPPPC; C6 acyl, non-natural residues, two PEG20K, C-terminal amide; Synthetic sequence PEGylated VPAC2 receptor agonist) [Agonist P588] | 311 nM | 54 nM | 406 nM | –
8 | C6-HSDAVFTEQY(OMe)TOrnLRAibQC(PEG40K)AAbuAibOrnY(OMe)LQAibIOrnOrnGGPSSGAPPPS-NH2 (HSDAVFTEQYTXLRXQCAXXXYLQXIXXGGPSSGAPPPS; C6 acyl, non-natural residues, PEG40K, C-terminal amide; Synthetic sequence PEGylated VPAC2 receptor agonist) [Agonist P578] | 306 nM | 205 nM | 269 nM | –
